The values that follow come from patent US7297837 (Johns Hopkins, dated 2007).

The target of the assay is T1, full-length hMLH1 protein (human, UniProt P40692 1-756, 35S-labelled methionine where labelled).
T1 construct: Called full-length
T1 sequence (looked up): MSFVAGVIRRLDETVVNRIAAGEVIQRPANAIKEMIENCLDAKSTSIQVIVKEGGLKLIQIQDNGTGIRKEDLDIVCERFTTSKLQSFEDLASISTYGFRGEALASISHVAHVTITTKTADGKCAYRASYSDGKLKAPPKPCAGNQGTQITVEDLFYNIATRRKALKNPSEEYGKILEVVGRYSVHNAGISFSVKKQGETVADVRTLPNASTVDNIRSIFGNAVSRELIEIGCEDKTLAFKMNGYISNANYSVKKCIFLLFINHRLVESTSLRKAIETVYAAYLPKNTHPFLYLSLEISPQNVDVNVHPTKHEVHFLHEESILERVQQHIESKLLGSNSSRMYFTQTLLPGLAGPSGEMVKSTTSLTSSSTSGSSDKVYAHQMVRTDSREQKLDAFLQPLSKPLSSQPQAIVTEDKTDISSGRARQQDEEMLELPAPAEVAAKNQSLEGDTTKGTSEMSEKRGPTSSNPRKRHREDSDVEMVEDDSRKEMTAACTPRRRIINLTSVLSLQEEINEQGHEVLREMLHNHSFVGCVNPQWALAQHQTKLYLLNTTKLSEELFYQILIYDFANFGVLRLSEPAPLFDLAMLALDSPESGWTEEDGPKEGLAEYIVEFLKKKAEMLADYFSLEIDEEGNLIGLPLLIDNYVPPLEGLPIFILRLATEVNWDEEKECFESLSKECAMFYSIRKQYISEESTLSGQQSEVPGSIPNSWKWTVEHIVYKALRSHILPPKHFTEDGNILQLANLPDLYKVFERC
Put plainly: co-immunoprecipitation of in vitro translated proteins with anti-hMLH1 mAb (FIG. 5B, lane 1); converse with N-terminal hPMS2 antibody (FIG. 5C, lane 2). As to the method: Immunoprecipitation, Immunoprecipitations were performed on in vitro translated proteins by mixing the translation reactions with 1 μg of the MLH1 specific monoclonal antibody (mAB) MLH14 (Oncogene Science, Inc.), a polyclonal antibody generated to codons 2-20 of hPMS2 described above, or a polyclonal antibody generated to codons 843-862 of hPMS2 (Santa Cruz Biotechnology, Inc.) in 400 µl of EBC buffer (50 mM Tris, pH 7.5, 0.1 M NaCl, 0.5% NP40). After incubation for 1 hr at 4° C., protein A sepharose (Sigma) was added to a final concentration of 10% and reactions were incubated at 4° C. for 1 hour. Proteins bound to protein A were washed five times in EBC and separated by electrophoresis on 4-20% Tris-glycine gels, which were then dried and autoradiographed.
Previous studies have shown that these two proteins dimerize to form a functionally active complex (12, 28). Proteins were synthesized in vitro using reticulocyte lysates, employing RNA generated from cloned templates. The full-length hMLH1 and hPMS2 proteins bound to each other and were co-precipitated with antibodies to either protein, as expected (data not shown). […] When a ^35S-labelled, full length hMLH1 protein (FIG. 5A, lane 5) was mixed with the unlabelled carboxyl terminal hPMS2 polypeptide, a monoclonal antibody (mAb) to the carboxyl terminus of hPMS2 efficiently immunoprecipitated the labeled hMLH1 protein (lane 1). […]

B1: hPMS-134 (containing codons 1-134 of hPMS2), in vitro translated (other, human, UniProt P54278 1-134, looked up)
chain: MERAESSSTEPAKAIKPIDRKSVHQICSGQVVLSLSTAVKELVENSLDAGATNIDLKLKDYGVDLIEVSDNGCGVEEENFEGLTLKHHTSKIQEFADLTQVETFGFRGEALSSLCALSDVTISTCHASAKVGTR
modifications: 35S-labelled methionine
notes: The patient allele expressed in cells is said to give the N-terminal 133 amino acids
Consider B1, for which the binding result is recorded as “no binding”.
